Results reported in US7867500B2, “Cofactor that modulates steroid receptor activities” (The United States of America as represented by the …, priority 2004, dated 2011).

Target: T1, SRC-1 (1139C) (Homo sapiens, UniProt Q15788)
T1 construct: expressed in transfected cells; host or cells: CV-1
T1 sequence (Q15788 1139-1441 limits assumed): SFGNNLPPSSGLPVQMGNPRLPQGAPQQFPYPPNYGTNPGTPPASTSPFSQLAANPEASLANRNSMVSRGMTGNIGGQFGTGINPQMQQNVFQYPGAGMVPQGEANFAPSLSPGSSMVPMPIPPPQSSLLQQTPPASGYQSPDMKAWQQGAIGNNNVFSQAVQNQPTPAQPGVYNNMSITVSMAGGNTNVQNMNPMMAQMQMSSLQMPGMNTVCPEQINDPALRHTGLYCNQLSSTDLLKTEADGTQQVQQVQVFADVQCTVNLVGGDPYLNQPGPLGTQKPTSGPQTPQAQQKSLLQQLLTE
T1 sequence (Q6EMB2 627-838 partner limits assumed): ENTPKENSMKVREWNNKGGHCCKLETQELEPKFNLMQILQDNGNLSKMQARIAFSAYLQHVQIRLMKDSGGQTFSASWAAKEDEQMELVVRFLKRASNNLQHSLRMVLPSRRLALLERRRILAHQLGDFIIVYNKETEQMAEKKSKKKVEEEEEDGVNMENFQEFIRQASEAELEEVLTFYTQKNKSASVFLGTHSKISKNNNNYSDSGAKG
Experiment: Mammalian two-hybrid assay in CV-1 cells with SRC-1 C-terminal fragment
Type: cell-based
From the text: FIG. 2A-2C illustrate the isolation and characterization of the partial clone of the protein that binds to TIF2.4. […] Five clones were obtained but only two (clones I and V) contained a protein that was needed for colony growth in the presence of the pSos/TIF2.4 fusion protein. After initial screening, only clone I (also named 6-6CL1) was selected for further investigation. FIG. 2B and FIG. 2C illustrate the selectivity of 6-6CL1 interactions with TIF2.4 in mammalian two-hybrid assays. Triplicate samples of CV-1 cells in 24-well plates were transiently transfected with the indicated GAL-DBD and VP16-AD plasmids along with the GAL4-regulated reporter, pFRLuc. The relative luciferase activity, normalized for the activity of the internal Renilla control, was determined and plotted as the average±S.D. The much lower activity of GAL/TIF2.4m123 was previously shown not to be due to unequal levels of protein expression (He et al., 2002). Similar results were obtained in three additional experiments. […] Triplicate samples of CV-1 cells in 24-well plates were analyzed as in (B&C) after being transiently transfected with GAL±6-6CL1 constructs and pFRLuc reporter along with VP16 chimeras of SRC-1 (FIG. 2D) or TIF2 (FIG. 2E) segments. Similar results for SRC-1 were obtained in two additional experiments (ND=not determined). […]

B1: 6-6CL1: STAMP fragment amino acids 623-834, coactivator interaction domain (CID) (protein)
chain: ENTPKENSMKVREWNNKGGHCCKLETQELEPKFNLMQILQDNGNLSKMQARIAFSAYLQHVQIRLMKDSGGQTFSASWAAKEDEQMELVVRFLKRASNNLQHSLRMVLPSRRLALLERRRILAHQLGDFIIVYNKETEQMAEKKSKKKVEEEEEDGVNMENFQEFIRQASEAELEEVLTFYTQKNKSASVFLGTHSKISKNNNNYSDSGAKG
interaction with C-terminal portion of SRC-1 (1139C): strongly interacted
